The source of these data is article PMC1781754 (2000).

One may read the Ki as the equilibrium dissociation constant of an inhibitor or competing ligand from its target. A lower Ki goes with tighter binding.

This test concerns the target T1, IL-5 receptor alpha/beta (Homo sapiens, UniProt Q01344).
T1 chain 1: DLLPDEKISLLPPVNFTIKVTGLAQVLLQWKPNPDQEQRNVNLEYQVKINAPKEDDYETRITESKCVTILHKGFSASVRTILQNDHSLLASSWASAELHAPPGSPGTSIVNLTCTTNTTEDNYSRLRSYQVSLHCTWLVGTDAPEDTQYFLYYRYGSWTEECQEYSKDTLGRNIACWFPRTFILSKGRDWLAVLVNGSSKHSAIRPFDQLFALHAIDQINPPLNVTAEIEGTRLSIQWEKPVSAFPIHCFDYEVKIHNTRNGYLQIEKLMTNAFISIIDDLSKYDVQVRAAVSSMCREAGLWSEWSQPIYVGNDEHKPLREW
T1 chain 2: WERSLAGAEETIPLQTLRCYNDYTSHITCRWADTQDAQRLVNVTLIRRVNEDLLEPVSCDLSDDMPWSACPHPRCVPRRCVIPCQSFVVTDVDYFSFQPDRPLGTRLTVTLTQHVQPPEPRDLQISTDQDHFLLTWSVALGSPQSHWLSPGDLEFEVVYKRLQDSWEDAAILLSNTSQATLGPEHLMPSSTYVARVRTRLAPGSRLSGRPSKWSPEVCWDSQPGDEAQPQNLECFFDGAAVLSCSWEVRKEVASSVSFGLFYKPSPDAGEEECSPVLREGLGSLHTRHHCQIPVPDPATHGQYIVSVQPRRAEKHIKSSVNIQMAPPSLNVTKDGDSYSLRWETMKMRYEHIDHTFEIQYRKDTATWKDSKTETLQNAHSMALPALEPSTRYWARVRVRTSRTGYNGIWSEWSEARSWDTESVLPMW
Nature of the test: radioligand displacement. A general note: Displacement assays read how much labelled ligand stays bound in the presence of the test substance.

B1: IL-5 (protein)
chain: MEIPMSTVVKETLTQLSAHRALLTSNETMRLPVPTHKNHQLCIGEIFQGLDILKNQTVRGGTVEMLFQNLSLIKKYIDRQKEKCGEERRRTRQFLDYLQEFLGVMSTEWAMEG
Molecule B1 gave a Ki of 0.17 nM.

B2: IL-5 (protein)
chain: IPKQSATLRALVRETLTLLSTHRTLLKGNETLRISVPAHKNHQLCIEEIFQGIDTLKNQTTQGEALATLFQNLSLIKKHIDLQKQKCGEERRRVKQFLDYLQEFLAVINTEWTIEG
The molecule B2 yielded an inhibitory constant (Ki) of 0.75 nM.
